Measurements taken from patent US20240151714A1 (AJOU UNIVERSITY INDUSTRY ACADEMIC COOPERATION FOUNDATION, published 2024).

Experiments:
[1] = target: T1, cTnI protein (ab207624; Abcam) (UniProt P19429 1-210, limits assumed); assay: PPR-based homogeneous assay, specificity test (trastuzumab-DNA1 with pertuzumab-DNA2)
T1 construct: also called cardiac troponin I
Method: (§1) In a homogeneous assay to detect the target substance, samples were mixed with four conjugates (TEVP-first DNA′, BLZ-second DNA′, first binder-first DNA agent, second binder-second DNA) and […] CENTA™ (EMD Millipore, USA) in a reaction buffer (137 mM NaCl, 2.7 mM KCl, 10 mM Na₂HPO₄, 2 mM KH₂PO₄, 40 mM MgCl₂, 10 mM DTT, 0.5% (w/v) BSA, and pH 7.4). Hydrolysis of CENTA™ by β-lactamase was monitored by measuring absorbance (A₄₀₅) at 405 nm using a plate reader (synergy HT multi-detection reader; BioTek Instruments, USA) at 37° C. for 1 hour. The absorbance signal (ΔAbs=A₄₀₅ at 60 min−A₄₀₅ at 1 min) was plotted as a function of the concentration of the target substance. All experiments were performed at least three times and the limit of detection (LOD) was calculated as the sum of the mean ΔAbs of the blank and three times the standard deviation. In the competitive immunoassay for small molecule detection, an antibody against the target was further contained in the reaction solution. The following proteins were used as targets: HER2 (extracellular domain; 10004-H₀₈H; Sino Biological, China), cTnI protein (ab207624; Abcam, United Kingdom), thrombin (ab62452; Abcam), digoxigenin (D9026; Sigma, USA), digoxigenin polyclonal antibody (PA1-85378; Thermo Fisher Scientific, USA) and hCG monoclonal antibody (MA5-14680; Thermo Fisher Scientific).

[2] = target: thrombin (ab62452; Abcam) (human, UniProt P00734 328-622); assay: as above
Method: as §1

T1 sequence (P19429 whole entry): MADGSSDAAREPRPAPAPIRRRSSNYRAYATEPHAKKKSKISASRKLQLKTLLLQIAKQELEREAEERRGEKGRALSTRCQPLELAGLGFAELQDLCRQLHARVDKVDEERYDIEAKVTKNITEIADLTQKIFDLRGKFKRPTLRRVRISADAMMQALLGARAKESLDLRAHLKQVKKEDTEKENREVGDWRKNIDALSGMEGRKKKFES

- binding result [1]: no binding (tested: 10 nM)
- binding result [2]: no binding (tested: 10 nM)
B1: pertuzumab-second DNA conjugate (antibody, V domains shown)
VH: EVQLVESGGGLVQPGGSLRLSCAASGFTFTDYTMDWVRQAPGKGLEWVADVNPNSGGSIYNQRFKGRFTLSVDRSKNTLYLQMNSLRAEDTAVYYCARNLGPSFYFDYWGQGTLVTVSS
VL: DIQMTQSPSSLSASVGDRVTITCKASQDVSIGVAWYQQKPGKAPKLLIYSASYRYTGVPSRFSGSGSGTDFTLTISSLQPEDFATYYCQQYYIYPYTFGQGTKVEIKR
modifications: amine groups conjugated to amine-modified second DNA (SEQ ID NO: 2) via a bis-NHS ester linker; heterogeneous product, sites not stated
notes: IgG made in HEK293F cells and conjugated to ssDNA; also called pertuzumab-DNA2; P-D2
